These are literature values, as cited in article PMC8193598.

A word on the Kd: it is the concentration at which binding is half-saturated.

Data set [1] addresses spike protein (SARS-CoV-2) (UniProt P0DTC2).
For data set [2] the target is unchanged. This is another data set of the same source.
Data set [3] concerns the target SARS-CoV-2 S1 CendR peptide CendR peptide (SARS-CoV-2) (UniProt P0DTC2).

“And” between values parts separate entries of the source, which are not always exact repeats. Equal entries are not always repeated. Where two headings read alike, the source gives them in different places.

Chain of KREMEN1 (Q96MU8 20-392): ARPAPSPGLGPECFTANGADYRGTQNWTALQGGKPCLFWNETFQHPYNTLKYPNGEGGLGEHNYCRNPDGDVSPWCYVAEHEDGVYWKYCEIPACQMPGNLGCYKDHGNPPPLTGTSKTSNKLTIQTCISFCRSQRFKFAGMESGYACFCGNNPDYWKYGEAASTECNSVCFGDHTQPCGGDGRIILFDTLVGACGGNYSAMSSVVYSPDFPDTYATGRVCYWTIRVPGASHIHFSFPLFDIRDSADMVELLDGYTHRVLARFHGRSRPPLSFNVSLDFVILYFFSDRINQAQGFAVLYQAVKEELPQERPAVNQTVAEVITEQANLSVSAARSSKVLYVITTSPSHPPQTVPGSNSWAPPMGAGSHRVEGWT
Chain of ASGR1 (P07306 whole entry): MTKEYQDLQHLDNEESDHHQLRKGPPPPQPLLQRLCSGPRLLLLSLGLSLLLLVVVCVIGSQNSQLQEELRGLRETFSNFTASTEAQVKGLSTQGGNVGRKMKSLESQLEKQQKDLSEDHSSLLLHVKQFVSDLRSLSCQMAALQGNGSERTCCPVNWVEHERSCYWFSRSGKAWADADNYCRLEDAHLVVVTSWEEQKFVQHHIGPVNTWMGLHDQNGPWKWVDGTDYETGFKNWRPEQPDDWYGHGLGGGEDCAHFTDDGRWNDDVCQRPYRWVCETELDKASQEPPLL

ASGR1 (from UniProt P07306): in data set [1], the Kd is 0.0948 µM. As for KREMEN1 (from UniProt Q96MU8), the Kd in data set [2] was 0.0193 µM.

Consider “neuropilin-1 coagulation factor domain (from UniProt O14786)”, for which the Kd in data set [3] is 20.3 µM and 13 µM.
